Here are results for two molecules from US20230416798A1 (MBRACE THERAPEUTICS, published 2023).

Common to all, as to assay: alanine scan, high-throughput flow cytometry; criterion for major residues
(In flow cytometry, cells or beads pass a laser one at a time.)

Test [1] deals with T1, GRP78 alanine scan variant at R261 (human, UniProt P11021 19-654).
T1 construct: Member of the alanine scan library of GRP78
Here is the method: (§1) To characterize the binding properties of the antibodies described in Example 1 for GRP78, epitope mapping analysis was carried out by alanine scan mutagenesis. An alanine scan library of GRP78 was constructed. Each anti-GRP78 antibody was then screened for binding to each individual GRP78 variant, allowing identification of the target protein residues involved in antibody binding.
(§2) Binding of each test antibody to each GRP78 variant in the alanine scanning library was determined by high-throughput flow cytometry under high stringency conditions (e.g., increased pH, increased salinity, increased temperature and/or increased wash time). Also included in the experiment was a commercially-available monoclonal antibody, 1H11-1H7, which was verified to bind to WT GFR78 on cells and thus determined to be a suitable positive control under these conditions (Thermo Fisher Scientific, Waltham, MA). Antibody binding to each of the GRP78 variant as measured by the fluorescence signal (raw fluorescence data minus the background), was normalized to its binding to the wildtype (WT) GRP78. For each GRP78 variant, such normalized binding to the test antibodies was plotted relative to that to the control antibody.

Test [2] addresses T2, GRP78 alanine scan variant at H265 (human, UniProt P11021 19-654).
T2 construct: Member of the alanine scan library of GRP78
Here is the method: as §1, §2

The target of test [3] is T3, GRP78 alanine scan variant at E329 (human, UniProt P11021 19-654).
T3 construct: Member of the alanine scan library of GRP78
T3 sequence (P11021 other isoform, or with tags, fused parts or gaps mutant limits assumed): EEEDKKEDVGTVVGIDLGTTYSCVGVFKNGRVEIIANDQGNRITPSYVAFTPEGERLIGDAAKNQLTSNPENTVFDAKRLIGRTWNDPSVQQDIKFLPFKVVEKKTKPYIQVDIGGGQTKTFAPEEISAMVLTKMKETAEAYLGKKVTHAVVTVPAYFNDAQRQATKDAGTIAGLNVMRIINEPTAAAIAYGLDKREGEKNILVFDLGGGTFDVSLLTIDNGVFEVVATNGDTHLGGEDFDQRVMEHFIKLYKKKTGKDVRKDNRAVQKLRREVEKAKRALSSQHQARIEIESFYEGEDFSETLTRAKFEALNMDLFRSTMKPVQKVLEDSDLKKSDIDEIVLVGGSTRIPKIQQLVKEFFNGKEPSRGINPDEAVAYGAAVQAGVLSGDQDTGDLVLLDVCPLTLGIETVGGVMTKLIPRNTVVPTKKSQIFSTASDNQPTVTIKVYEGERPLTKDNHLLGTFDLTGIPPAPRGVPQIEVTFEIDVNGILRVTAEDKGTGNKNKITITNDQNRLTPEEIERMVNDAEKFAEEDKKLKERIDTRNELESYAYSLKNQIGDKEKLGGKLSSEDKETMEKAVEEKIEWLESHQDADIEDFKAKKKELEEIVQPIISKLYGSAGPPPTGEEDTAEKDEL
As for the experimental part:
as §1, §2

Test [4] deals with T4, GRP78 alanine scan variant at R279 (human, UniProt P11021 19-654).
T4 construct: Member of the alanine scan library of GRP78
T4 sequence (P11021 other isoform, or with tags, fused parts or gaps mutant limits assumed): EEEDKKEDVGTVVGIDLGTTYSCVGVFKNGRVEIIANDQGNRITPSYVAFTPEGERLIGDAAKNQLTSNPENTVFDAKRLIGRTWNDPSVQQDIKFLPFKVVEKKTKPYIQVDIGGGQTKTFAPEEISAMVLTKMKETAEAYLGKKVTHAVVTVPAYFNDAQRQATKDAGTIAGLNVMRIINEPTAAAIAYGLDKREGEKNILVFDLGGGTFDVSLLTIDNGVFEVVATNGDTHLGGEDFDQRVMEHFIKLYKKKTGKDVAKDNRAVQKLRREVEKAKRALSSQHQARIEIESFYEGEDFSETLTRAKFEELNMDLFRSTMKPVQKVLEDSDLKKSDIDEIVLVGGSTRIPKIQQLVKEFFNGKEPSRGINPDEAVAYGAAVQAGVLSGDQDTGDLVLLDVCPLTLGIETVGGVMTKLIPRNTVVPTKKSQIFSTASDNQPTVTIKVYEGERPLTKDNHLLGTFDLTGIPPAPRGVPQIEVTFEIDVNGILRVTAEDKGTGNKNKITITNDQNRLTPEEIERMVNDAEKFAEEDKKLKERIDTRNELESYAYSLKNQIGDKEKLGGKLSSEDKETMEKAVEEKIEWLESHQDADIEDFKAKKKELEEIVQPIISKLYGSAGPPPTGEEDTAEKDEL
As for the experimental part:
as §1, §2

T1 sequence (P11021 other isoform, or with tags, fused parts or gaps mutant limits assumed): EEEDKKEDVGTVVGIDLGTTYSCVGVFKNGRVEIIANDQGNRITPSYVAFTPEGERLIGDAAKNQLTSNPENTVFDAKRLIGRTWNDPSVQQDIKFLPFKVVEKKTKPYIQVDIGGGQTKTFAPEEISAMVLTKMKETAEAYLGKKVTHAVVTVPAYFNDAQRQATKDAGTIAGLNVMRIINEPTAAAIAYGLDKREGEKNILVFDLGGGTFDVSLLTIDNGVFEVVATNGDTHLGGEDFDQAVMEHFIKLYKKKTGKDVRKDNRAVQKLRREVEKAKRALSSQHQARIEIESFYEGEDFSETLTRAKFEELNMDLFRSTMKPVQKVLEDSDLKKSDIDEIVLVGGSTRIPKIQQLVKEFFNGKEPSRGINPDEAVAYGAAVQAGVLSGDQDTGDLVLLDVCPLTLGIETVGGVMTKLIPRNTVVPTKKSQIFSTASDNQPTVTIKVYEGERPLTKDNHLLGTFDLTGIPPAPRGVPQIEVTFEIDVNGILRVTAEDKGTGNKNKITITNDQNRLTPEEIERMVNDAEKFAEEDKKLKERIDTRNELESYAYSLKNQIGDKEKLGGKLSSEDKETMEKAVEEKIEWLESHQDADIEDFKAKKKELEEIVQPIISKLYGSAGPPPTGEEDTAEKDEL
T2 sequence (P11021 other isoform, or with tags, fused parts or gaps mutant limits assumed): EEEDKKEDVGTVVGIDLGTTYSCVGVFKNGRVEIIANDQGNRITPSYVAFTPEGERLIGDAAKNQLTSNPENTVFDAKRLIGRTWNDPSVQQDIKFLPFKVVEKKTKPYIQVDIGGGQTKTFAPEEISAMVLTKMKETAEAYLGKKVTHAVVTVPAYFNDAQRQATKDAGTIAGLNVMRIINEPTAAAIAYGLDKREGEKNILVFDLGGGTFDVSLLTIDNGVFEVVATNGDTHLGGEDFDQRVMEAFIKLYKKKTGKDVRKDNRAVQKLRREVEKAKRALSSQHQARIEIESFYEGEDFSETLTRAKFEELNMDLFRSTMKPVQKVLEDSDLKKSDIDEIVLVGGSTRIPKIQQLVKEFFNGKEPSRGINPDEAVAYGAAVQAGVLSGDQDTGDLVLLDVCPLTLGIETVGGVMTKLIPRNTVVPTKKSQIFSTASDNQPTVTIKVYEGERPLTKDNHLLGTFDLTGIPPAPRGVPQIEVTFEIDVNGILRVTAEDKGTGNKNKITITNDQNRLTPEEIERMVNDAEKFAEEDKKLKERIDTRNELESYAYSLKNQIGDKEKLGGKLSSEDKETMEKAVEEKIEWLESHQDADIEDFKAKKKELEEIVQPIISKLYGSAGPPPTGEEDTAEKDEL

B1: anti-GRP78 antibody clone B4 (antibody, IgG1, V domains shown)
VH: QVRLQESGPGLVKPSQTLSLTCTVSGGSISSGGYYWSWIRQHPGKGLEWIGYIYYSGSTYYNPSLESRVTISVDTSKNQFSLKLSSVTAADTAVYYCARYSSIDAFEIWGQGTMVTVSS
VL: SYVLTQPPSVSVAPGKTATITCGGDDIGSKSVHWYQQKPGQAPVLVVYDDGDRPSGIPERFSGSNSGNTATLAISRVEAGDEADYYCQVWDSSSDQYVFGSGTKLTVL
notes: Fully human mAb formatted as full-length IgG1; also called B4 mAb
As to B1, the “binding normalized to wildtype (WT) GRP78” value in test [1], in test [2] and in test [3] was below 20% throughout.

B2: anti-GRP78 antibody clone F6 (antibody, IgG1, V domains shown)
VH: QVQLQQSGPGLVKPPQTLSLTCAISGDSVSSNSAAWNWIRQSPSRGLEWLGRTYYRSKWYNDYAVSVKSRITINPDTSKNQFSLQLNSVTPEDTAVYYCARDPYYYDSSGYYYFDAFDIWGQGTMVTVSS
VL: SYELTQPHSVSVAPGQTARITCGGDNIGSKSVHWYQQRPGQAPVLVVYDDSDRPSGIPERFSGSNSENTATLTISGVEAGDEADYYCQVWDSTSHHVVFGGGTKLTVL
notes: Fully human mAb formatted as full-length IgG1; also called F6 mAb; Anti-GRP78 (F6)
As for B2, the “binding normalized to wildtype (WT) GRP78” value in test [4] and in test [1] was below 20% throughout.
